From patent US20240010753A1 (EPIMAB BIOTHERAPEUTICS HK, published 2024)
Changes are numbered by the printed parent chain.

B1: HuROR1-mAb004-1 (antibody, V domains shown)
VH: EVQLVQSGAEVKKPGSSVKVSCKASGYTFSRSWMNWVRQAPGQGLEWMGRIYPGNADIKYNANFKGRVTITADKSTSTAYMELSSLRSEDTAVYYCAHIYYDFYYALDYWGQGTTVTVSS
VL: DIQMTQSPSSLSASVGDRVTITCKASQDINKYITWYQQKPGKAPKLLIYYTSTLQPGVPSRFSGSGSGTDYTFTISSLQPEDIATYYCLQYDSLLWTFGGGTKVEIK
notes: only the variable domains are tied to it; also called HuROR-mAb004-1; parental anti-ROR1 monoclonal IgG1 antibody
B2: ROR1-mAb004 (antibody, V domains shown)
VH: QVQLQQSGPELVKPGASVKISCKASGYAFSRSWMNWVKQRPEKGLEWIGRIYPGNGDIKYNGNFKGKATLTADKSSSTAYMQLSSLTSEDSAVYFCAHIYYDFYYALDYWGQGTSVTVSS
VL: DIQLTQSPSSLSASLGGKVTITCKASQDINKYITWYQHKPGKGPRLLIHYTSTLQPGIPSRFSGSGSGRDYSFSISNLEPEDIATYYCLQYDSLLWTFGGGTKLEIK
notes: Mouse hybridoma monoclonal antibody; captured and detected through mouse IgG Fc
B3: ROR1-Tab1 (antibody, V domains shown)
VH: QEQLVESGGRLVTPGGSLTLSCKASGFDFSAYYMSWVRQAPGKGLEWIATIYPSSGKTYYATWVNGRFTISSDNAQNTVDLQMNSLTAADRATYFCARDSYADDGALFNIWGPGTLVTISS
VL: ELVLTQSPSVSAALGSPAKITCTLSSAHKTDTIDWYQQLQGEAPRYLMQVQSDGSYTKRPGVPDRFSGSSSGADRYLIIPSVQADDEADYYCGADYIGGYVFGGGTQLTVTG
notes: also called clone R12; R12 as described in WO2014167022
B4: FIT1007-12B (bispecific antibody, human IgG1, kappa, L234A L235A)
chain 1: not shown
chain 2: QVQLQQSGPELVKPGASVKISCKASGYAFSRSWMNWVKQRPEKGLEWIGRIYPGNGDIKYNGNFKGKATLTADKSSSTAYMQLSSLTSEDSAVYFCAHIYYDFYYALDYWGQGTSVTVSSASTKGPSVFPLAPSSKSTSGGTAALGCLVKDYFPEPVTVSWNSGALTSGVHTFPAVLQSSGLYSLSSVVTVPSSSLGTQTYICNVNHKPSNTKVDKKVEPKSC
chain 3: not shown
notes: also called parental chimeric FIT-Ig; chimeric antibody (FIT1007-12B)
B5: FIT1007-12B-15 (bispecific antibody, human IgG1, kappa, L234A L235A)
chain 1: not shown
chain 2: B4 chain 2 with G56A, N61Q
chain 3: not shown
notes: Chimeric ROR1 arm with CDR-H2 point mutations (AQ); ROR1xCD3 FIT-Ig, no linkers

What was measured:
[1] = target: T1, human ROR1 on cells (human, UniProt Q01973 30-937); experiment: flow cytometry on RPMI-8226 cells, MFI
T1 construct: whole, on cells; the cell line is named under assay; also called CHO-ROR1; CHOK1-ROR1
T1 sequence (Q01973 30-937): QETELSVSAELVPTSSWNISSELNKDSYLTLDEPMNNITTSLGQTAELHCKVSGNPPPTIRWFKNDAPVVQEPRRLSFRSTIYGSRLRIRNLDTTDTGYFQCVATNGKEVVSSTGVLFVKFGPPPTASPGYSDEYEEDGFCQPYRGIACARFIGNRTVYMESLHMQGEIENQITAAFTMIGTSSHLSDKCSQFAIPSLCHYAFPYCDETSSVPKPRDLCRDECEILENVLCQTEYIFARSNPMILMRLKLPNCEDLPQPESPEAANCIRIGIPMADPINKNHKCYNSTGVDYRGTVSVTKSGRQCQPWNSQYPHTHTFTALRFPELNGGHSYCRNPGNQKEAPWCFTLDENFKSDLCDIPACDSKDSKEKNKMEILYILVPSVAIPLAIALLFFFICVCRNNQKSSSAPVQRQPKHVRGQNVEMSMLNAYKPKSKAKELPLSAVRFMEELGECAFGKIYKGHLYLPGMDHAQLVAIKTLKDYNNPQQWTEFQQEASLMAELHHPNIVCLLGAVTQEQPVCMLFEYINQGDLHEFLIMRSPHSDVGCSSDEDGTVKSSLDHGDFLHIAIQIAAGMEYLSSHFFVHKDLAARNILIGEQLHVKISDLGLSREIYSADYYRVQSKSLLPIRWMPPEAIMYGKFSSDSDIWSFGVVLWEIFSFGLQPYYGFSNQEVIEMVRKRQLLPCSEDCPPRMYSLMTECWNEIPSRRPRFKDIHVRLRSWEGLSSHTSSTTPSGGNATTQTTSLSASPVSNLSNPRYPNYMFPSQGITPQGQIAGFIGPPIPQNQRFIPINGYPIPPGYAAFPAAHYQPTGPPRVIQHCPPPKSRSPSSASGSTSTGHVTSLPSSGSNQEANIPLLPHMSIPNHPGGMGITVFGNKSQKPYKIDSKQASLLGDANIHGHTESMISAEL
Description: (§1) Briefly, 5×10⁵ cells were seeded into each well of a 96-well plate. Cells were centrifuged at 400 g for 5 minutes and supernatants were discarded. For each well, 100 IA of serially diluted antibodies were then added and mixed with the cells. After 40 minutes of incubation at 4° C., plates were washed several times to remove excess antibodies. Secondary fluorochrome-conjugated goat anti-human IgG antibody was then added and incubated with cells at room temperature for 20 minutes. After another round of centrifugation and a washing step, cells were resuspended in FACS buffer for reading on a CytoFLEX Flow Cytometer (Beckman Coulter). Median Fluorescence Intensity (MFI) readouts were plotted against antibody concentration and analyzed with GraphPad Prism 6.0 software.

[2] = target: T1, human ROR1 on cells; experiment: flow cytometry on A549 cells, MFI
Description: as §1

[3] = target: T1, human ROR1 on cells; experiment: flow cytometry on NCI-H1975 cells, MFI
Description: as §1

[4] = target: T1, human ROR1 on cells; experiment: flow cytometry on MDA-MB-231 cells, MFI
Description: as §1

[5] = target: T1, human ROR1 on cells; experiment: flow cytometry on RPMI8226 cells, internalization assay, 4°C control (coincides with 37°C + PAO)
Description: The binding internalization of humanized anti-ROR1 antibodies were characterized with ROR1-expressing myeloma cell line RPMI8226 with a method similar to that described previously in Example 1.4. Briefly, cells were harvested and resuspended in FACS buffer at density of 3 million per mL. Diluted antibodies were added to the tubes and incubated for 30 min at 4° C. After the first incubation, cells were washed three times with cold PBS to remove unbound antibody. Then, the cells of each antibody treatment were split into three groups, 4° C., 37° C. and 37° C.+PAO, respectively. Cells in the 37° C. […] After another round of centrifugation and washing step, cells were resuspended in FACS buffer for reading on a CytoFLEX Flow Cytometer (Beckman Coulter). An irrelevant mouse IgG control (MFIbackground) was calculated and used for background calibration. The difference between the MFI readout of “control” and that of “internalization” (ΔMFI) reflects the internalization of ROR1 antibodies, and such difference in relative to calibrated MFI of “control” reflects percentage of antibody internalization, which is calculated as follows and is summarized below in Table 15. […] The calculated antibody internalization percentages of HuROR-mAb004-1 and FIT1007-12B-17 were consistent with the results shown in Example 1.4, Table 4.

[6] = target: T2, recombinant human ROR1-ECD protein (human, UniProt Q01973 30-406); experiment: competition ELISA: biotinylated ROR1-ECD pre-mixed with the row's antibody; competitor coated on the plate: ROR1-Tab1
T2 construct: also called human ROR1 extracellular domain
T2 sequence (Q01973 30-406): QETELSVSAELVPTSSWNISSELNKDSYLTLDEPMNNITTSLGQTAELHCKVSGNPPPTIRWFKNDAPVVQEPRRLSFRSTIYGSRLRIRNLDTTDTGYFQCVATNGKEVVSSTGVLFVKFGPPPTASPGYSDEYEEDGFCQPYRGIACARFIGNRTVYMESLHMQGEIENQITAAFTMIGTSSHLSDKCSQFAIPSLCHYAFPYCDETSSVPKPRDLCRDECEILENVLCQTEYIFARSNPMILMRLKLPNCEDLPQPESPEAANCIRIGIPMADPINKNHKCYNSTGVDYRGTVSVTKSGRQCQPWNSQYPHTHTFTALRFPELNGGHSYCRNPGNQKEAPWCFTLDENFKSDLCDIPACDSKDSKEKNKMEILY
Description: (§2) The binding epitope of ROR1 antibodies were identified with a competition ELISA. Briefly, 96 well plates were coated with 1 ug/mL purified antibodies and incubated overnight at 4° C. After washing with PBS containing 0.05% Tween 20, plates were blocked with blocking buffer (PBS containing 0.05% Tween 20 and 2% BSA) at 37° C. for 2 hours. Biotinylated human ROR1-ECD protein pre-mixed with ROR1 antibody (sample) or irrelevant mouse IgG (baseline) was added into plate wells and incubated at 37° C. for 1 hour before being washed 3 times. Streptavidin-HRP (1:5000 dilution) was then added into each well and incubated at 37° C. for 1 hour before being washed another 3 times. Tetramethylbenzidine (TMB) chromogenic solution was added for color development for 5 minutes then the reaction was stopped with 1M HCl. Absorbance at 450 nm (OD₄₅₀) was measured on a microplate reader. The OD450baseline represents the level of human ROR1-ECD binding to ROR1 antibodies at absence of competition, while the difference between OD450baseline and OD450ₛₐₘₚₗₑ reflects the competition between the ROR1 antibody coated on plate and the antibody in solution. The inhibition percentage was calculated by following equation: […]

[7] = target: T2, recombinant human ROR1-ECD protein; experiment: ELISA, ROR1-ECD coated at 1 ug/mL
Description: The binding specificity and potency of anti-ROR1 antibodies were characterized by protein ELISA and flow cytometry analysis of cell surface binding. Briefly, binding properties of the anti-ROR1 antibodies were measured with ELISA as follows: recombinant ROR1-ECD protein was coated at 1 μg/mL on 96-well plates at 4° C. overnight. Plates were washed once with washing buffer (PBS containing 0.05% Tween 20) and blocked with ELISA blocking buffer (1% BSA in PBS containing 0.05% Tween 20) at room temperature for 2 hours. Anti-ROR1 antibodies were then added and incubated at 37° C. for 1 hour. Plates were washed three times with washing buffer. HRP labeled anti-mouse IgG secondary antibody (Sigma, Cat. #A0168) was added and the plates were incubated at 37° C. for 30 minutes then washed 5 times in washing buffer. 100 μl of tetramethylbenzidine (TMB) chromogenic solution was added to each well. Following color development, the reaction was stopped with 1 Normal HCl and absorbance at 450 nm was measured on a Varioskan™ LUX microplate reader (ThermoFisher Scientific). Binding signals were plotted against antibody concentration with GraphPad Prism 6.0 software and EC50s were calculated accordingly.

[8] = target: T1, human ROR1 on cells; experiment: flow cytometry on human ROR1 transfected CHO cells (CHOK1-ROR1)
Description: as §1, with “Cell binding activity of anti-ROR1 antibodies were measured with human ROR1 transfected CHO cell line (CHO-ROR1) and ROR1-expressing myeloma cell line (RPMI8226). Briefly,” for “Briefly,”, “μl” for “IA”, “minutes” for “minutes of”, “anti-mouse” for “anti-human”, “software. The results shown in FIGS. 2A-B illustrate the binding activities of anti-ROR1 monoclonal antibodies ROR1-mAb004 and ROR1-Tab1 to ROR1 expressing cells. An irrelevant mIgG1 was used as negative control.” for “software.”

[9] = target: T1, human ROR1 on cells; experiment: flow cytometry on RPMI-8226 myeloma cells
Description: as §1, with “Cell binding activity of anti-ROR1 antibodies were measured with human ROR1 transfected CHO cell line (CHO-ROR1) and ROR1-expressing myeloma cell line (RPMI8226). Briefly,” for “Briefly,”, “μl” for “IA”, “minutes” for “minutes of”, “anti-mouse” for “anti-human”, “software. The results shown in FIGS. 2A-B illustrate the binding activities of anti-ROR1 monoclonal antibodies ROR1-mAb004 and ROR1-Tab1 to ROR1 expressing cells. An irrelevant mIgG1 was used as negative control.” for “software.”

[10] = target: T2, recombinant human ROR1-ECD protein; experiment: BLI (Octet RED96), antibody captured on anti-mouse IgG Fc sensors, ROR1-ECD in solution, 25 C, 1:1 fit
Description: Briefly, Anti-Mouse IgG Fc Capture (AMC) Biosensors were used to capture purified anti-ROR1 antibodies. Sensors were then dipped into solutions containing recombinant human ROR1-ECD protein to detect target protein binding to the captured antibodies. Kinetics constants were determined by processing and fitting data to a 1:1 binding model using Fortebio analysis software. Shown below in Table 2 are the results obtained for ROR1-mAb004 in comparison with two previously described anti-ROR1 monoclonal antibodies, ROR1-Tab1 is clone R12 as described in WO2014167022, and ROR1-Tab2 is clone D10 as described in WO2012097313.

[11] = target: T2, recombinant human ROR1-ECD protein; experiment: competition ELISA: biotinylated ROR1-ECD pre-mixed with the row's antibody; competitor coated on the plate: ROR1-Tab2
Description: as §2

[12] = target: T2, recombinant human ROR1-ECD protein; experiment: competition ELISA: biotinylated ROR1-ECD pre-mixed with the row's antibody; competitor coated on the plate: ROR1-mAb004
Description: as §2

[13] = target: T2, recombinant human ROR1-ECD protein; experiment: BLI (Octet), 6 ROR1 antigen concentrations, 3 fold diluted from 500 nM
Description: (§3) The ROR1/CD3 FIT-Ig proteins were assayed for and ranked by dissociation rate constant (koff, “off-rate”) using an Octet®RED96 biolayer interferometry (Pall FortéBio LLC). Anti-hIgG Fc Capture (AHC) Biosensors (Pall) were first exposed to antibody at a concentration of 100 nM for 30 seconds to capture antibody, then dipped into running buffer (1× pH 7.2 PBS, 0.05% Tween 20, 0.1% BSA) for 60 seconds to check baseline. Sensors with captured antibody were dipped into recombinant human ROR1 ECD protein at 10 ug/ml for 5 minutes to measure association, followed by dipped into running buffer for 1200 seconds to measure dissociation. The association and dissociation curves were fitted to a 1:1 Langmuir binding model using ForteBio Data Analysis software (Pall). The off-rate ratios were calculated by the off-rate of antibody to that of FIT1007-12B. Lower ratio indicates slower dissociation of the antibody in comparison with the parental chimeric antibody FIT1007-12B.
ROR1 binding affinity/kinetics of the humanized candidate FIT1007-12B-17 and its parental chimeric FIT-Ig FIT1007-12B were measured using the same method as described in Example 3. For each antibody, measurements were titrated by 6 antigen concentrations, i.e., 3 fold diluted from 500 nM. Binding kinetics of FIT1007-12B-18, MAT1007-12B-17 and MAT1007-12B-18 are similar to those of FIT1007-12B-17. These candidates share the same ROR1 binding Fab.

[14] = target: T2, recombinant human ROR1-ECD protein; experiment: BLI (Octet RED96), FIT-Ig captured on anti-hIgG Fc sensors, ROR1 ECD at 10 ug/ml; the reference itself
Description: as §3

[15] = target: T2, recombinant human ROR1-ECD protein; experiment: BLI (Octet RED96), FIT-Ig captured on anti-hIgG Fc sensors, ROR1 ECD in solution
Description: as §3

Binder	Inhibition % [6]	EC50 [7]	EC50 [8]	EC50 [9]	Kd [10]	koff [10]	kon [10]	Inhibition % [11]	Inhibition % [12]	further results
B1										EC50 (read off the curve) [1]: ~1 nM; EC50 (read off the curve) [2]: ~1 nM; EC50 (read off the curve) [3]: ~2 nM; EC50 (read off the curve) [4]: ~2 nM; EC50 (read off the curve) [5]: ~1 nM
B2	-22%	0.022 nM	2.31 nM	0.983 nM	18.5 nM	0.00171 s⁻¹	92500 M⁻¹ s⁻¹	92%	93%	
B3	95%	0.025 nM	0.774 nM	0.128 nM	1.28 nM	0.00066 s⁻¹	517000 M⁻¹ s⁻¹	-84%	-54%	
B4										Kd [13]: 5.67 nM; koff [13]: 0.00103 s⁻¹; kon [13]: 182000 M⁻¹ s⁻¹; Off-rate Ratio [14]: 100%
B5										binding result [15]: no binding (tested: 10 ug/ml)
